For assay [1], the target named is Fc portion of human immunoglobulin G, biotinylated. Nature of the assay: yeast surface display end-point dissociation assay, flow cytometry (strep-PE). The note with it: dissociation at pH 4.5 for 30 min; parent: est. 0.88; read off a plot; scale: normalized fluorescence.
In assay [2] the target is human immunoglobulin G, biotinylated. Nature of the assay: microtiter plate dissociation assay (immobilised mutant, hIgG-biotin detected with streptavidin-alkaline phosphatase, A405). The note with it: 2 µg/ml mutant conjugated, 6 µM hIgG-biotin, read off a plot, scale: normalized absorbance at 405 nm.
Setting [3] is: dissociation at pH 2.5 for 30 min, parent: est. 0.33.
[4] abbreviates: dissociation at pH 3.5 for 30 min, parent: est. 0.91.
Where [5] appears, read: dissociation at pH 4.5 for 30 min, parent: est. 1.0.

As to “Sso7d-hFc, yeast cell surface fusion Y40H”, the response in assay [1] worked out at 0.1.

Consider “Sso7d-hFc, yeast cell surface fusion Sso7d-ev-hFc”, for which, in assay [1], the response was found to be 0.06.

For “Sso7d-hFc with a C-terminal cysteine Sso7d-ev-hFc”, the values for the response in assay [2] (setting [3]), in assay [2] (setting [4]) and in assay [2] (setting [5]) were 0.35, 0.87 and 1, respectively.

Consider “Sso7d-hFc with a C-terminal cysteine Y40H”, for which the response in assay [2] (setting [3]) worked out at 0.33; in assay [2] (setting [4]) it was 0.79; in assay [2] (setting [5]) it was 1.

The record behind these values is publication PMC3492137.
